# Experimental data taken from PMC4470041.
# Target: CCR5 expressed in HEK 293T cells (HEK-CCR5 cells) (UniProt P51681)
# Assay: radioligand binding
# UniProt P51681, sequence (P51681 whole entry): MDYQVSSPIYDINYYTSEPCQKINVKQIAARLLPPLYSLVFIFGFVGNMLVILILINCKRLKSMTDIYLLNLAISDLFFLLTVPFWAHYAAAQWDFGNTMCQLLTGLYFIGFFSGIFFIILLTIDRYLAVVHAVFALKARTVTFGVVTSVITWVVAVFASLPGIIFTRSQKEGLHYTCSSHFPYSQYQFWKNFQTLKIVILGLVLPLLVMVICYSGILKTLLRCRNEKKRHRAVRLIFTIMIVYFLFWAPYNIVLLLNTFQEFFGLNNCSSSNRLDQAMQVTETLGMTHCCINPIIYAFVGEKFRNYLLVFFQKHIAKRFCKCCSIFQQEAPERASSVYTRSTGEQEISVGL
substance,measurement,value
gp120 from the R5 HIV-1 primary strain Bx08 (natural protein),Ki,6.3 nM
